# FireProtDB
# B1: Peroxidase C2 wild type, P17179 (protein)
# chain: MHSSSSLIKLGFLLLLLNVSLSHAQLSPSFYDKTCPQVFDIATNTIKTALRSDPRIAASILRLHFHDCFVNGCDASILLDNTTSFRTEKDAFGNARSARGFDVIDTMKAAVEKACPKTVSCADLLAIAAQKSVVLAGGPSWKVPSGRRDSLRGFMDLANDNLPGPSSTLQVLKDKFRNVGLDRPSDLVALSGGHTFGKNQCQFIMDRLYNFSNSGKPDPTLDKSYLSTLRKQCPRNGNLSVLVDFDLRTPTIFDNKYYVNLKENKGLIQSDQELFSSPDASDTIPLVRAYADGQGKFFDAFVEAMIRMGNLSPSTGKQGEIRLNCRVVNSKPKIMDVVDTNDFASSI
# Settings: Armoracia rusticana, reversible: yes, whole UniProt chain shown; for denaturant m value / unfolding free energy: pH 7.4, 21 °C, GdnHCl, Sodium phosphate 20 mM, CaCl2 1 mM
protein,measurement,setting,value
B1,Tm,"pH 7, Thermal, Fluorescence, Unknown",74 °C
same,denaturant m value,CD,1.8 kcal/mol/M
same,unfolding free energy,CD,1.82 kcal/mol
same,denaturant m value,Fluorescence,0.3 kcal/mol/M
same,unfolding free energy,Fluorescence,2.2 kcal/mol
